# Source: publication PMC12312269, “Directed evolution of α-ketoisovalerate decarboxylase for improved isobutanol and 3-methyl-1-butanol production in cyanobacteria” (Biotechnology for Biofuels and Bioproducts, 2025)
# B1: α-ketoisovalerate decarboxylase Kivd^S286T (enzyme, Lactococcus lactis)
# chain: MYTVGDYLLDRLHELGIEEIFGVPGDYNLQFLDQIISHKDMKWVGNANELNASYMADGYARTKKAAAFLTTFGVGELSAVNGLAGSYAENLPVVEIVGSPTSKVQNEGKFVHHTLADGDFKHFMKMHEPVTAARTLLTAENATVEIDRVLSALLKERKPVYINLPVDVAAAKAEKPSLPLKKENSTSNTSDQEILNKIQESLKNAKKPIVITGHEIISFGLEKTVTQFISKTKLPITTLNFGKSSVDEALPSFLGIYNGTLSEPNLKEFVESADFILMLGVKLTDTSTGAFTHHLNENKMISLNIDEGKIFNERIQNFDFESLISSLLDLSEIEYKGKYIDKKQEDFVPSNALLSQDRLWQAVENLTQSNETIVAEQGTSFFGASSIFLKSKSHFIGQPLWGSIGYTFPAALGSQIADKESRHLLFIGDGSLQLTVQELGLAIREKINPICFIINNDGYTVEREIHGPNQSYNDIPMWNYSKLPESFGATEDRVVSKIVRTENEFVSVMKEAQADPNRMYWIELILAKEGAPKVLKKMGKLFAEQNKS
# notes: α-ketoisovalerate decarboxylase (Kivd) from Lactococcus lactis with the substitution S286T; the structure section names residues up to 548; Stored with 2.5 mM MgSO4 and 0.1 mM ThDP; also called ST; not shown: H6-Ub, N-terminal, cleaved
# Biological target: the molecule itself
# Experiment: crystal structure; hanging-drop vapour diffusion, 16-17.8% PEG6000 or PEG3350, 0.1 M MES pH 6.0, 20 °C; space group C2, four molecules (two dimers) in the asymmetric unit
protein,measurement,value
B1,stoichiometry N,4
